± gives the standard deviation of the averaged measurements.
B1: library; a variant is named by its letters at N, in order (parent)
chain: GCUGUCACCGGUGCUUGGUACGUUAUAUUCAGCCGGUCUGAUGAGUCUNNNNNNAGACGAAACAGC

Key:
(6R,S)-folinic acid [1] = variants of: B1; experiment: FACS-Seq fitted mean relative fluorescence mCherry/BFP without ligand (log10 relative fluorescence); HEK293T overexpressing SLC46A1; higher = higher reporter protein expression; conditions: without (6R,S)-folinic acid; ligand present: no
Procedure, shortened: (§1)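 Reporter cells were enriched HEK293T libraries transduced by lentivirus with mCherry behind the ribozyme switch and with an EF1α-BFP marker. Following 48 h with or without ligand, they were sorted into 6 mCherry/BFP bins, and bin genomic DNA was PCR-amplified, barcoded and MiSeq-sequenced. Fluorescence was computed as the fitted normal mean of the bin counts. The fit used log10(mCherry/BFP), with scaling to five spiked-in control ribozymes.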

(6R,S)-folinic acid [2] = variants of: B1; experiment: normalized RNA/DNA level without ligand (relative to sTRSVctl = 100) (log10 (% of sTRSVctl)); HEK293T overexpressing SLC46A1; higher = less ribozyme self-cleavage, higher mRNA level; conditions: without (6R,S)-folinic acid; ligand present: no
Protocol: (§2)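 Hammerhead (sTRSV) ribozyme switch libraries with a ligand aptamer grafted on stem I and a randomized N4-6 loop II, cloned into the 3' UTR of mCherry and transiently transfected into HEK293T cells; RNA-Seq 72 h post transfection with ligand added 1 h before transfection; RNA read count / plasmid DNA read count normalized to the non-cleaving sTRSVctl (x100), log10; sequences with >100 DNA reads. FACS-Seq: lentiviral library sorted into 6 bins after 48 h ligand, log-normal fit mean of mCherry/BFP scaled to controls. Printed sequences are partial switch sequences.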

(6R,S)-folinic acid [3] = variants of: B1; experiment: FACS-Seq fitted mean relative fluorescence mCherry/BFP with ligand (log10 relative fluorescence); HEK293T overexpressing SLC46A1; ligand concentration (+) FACS-Seq: 6 mM; higher = higher reporter protein expression; conditions: with (6R,S)-folinic acid; ligand present: yes
Procedure, shortened: as §1

(6R,S)-folinic acid [4] = variants of: B1; experiment: normalized RNA/DNA level with ligand (relative to sTRSVctl = 100) (log10 (% of sTRSVctl)); HEK293T overexpressing SLC46A1; ligand concentration (+) RNA-Seq: 6 mM; higher = less ribozyme self-cleavage, higher mRNA level; conditions: with (6R,S)-folinic acid; ligand present: yes
Protocol: as §2

Variant | FACS-Seq fitted mean (log10) ((6R,S)-folinic acid [1]) | normalized RNA/DNA level without ligand (log10) ((6R,S)-folinic acid [2]) | FACS-Seq fitted mean (log10) ((6R,S)-folinic acid [3]) | normalized RNA/DNA level with ligand (log10) ((6R,S)-folinic acid [4])
AGGAAU | 0.338 ± 0.1 | 1.988 ± 0.016 | 0.0683 ± 0.36 | 2 ± 0.029
UACAAA | 0.165 ± 0.11 | 1.9485 ± 0.00073 | 0.179 ± 0.031 | 1.99 ± 0.019
CCGAGC | 0.201 ± 0.25 | 2.049 ± 0.0044 | 0.357 ± 0.22 | 2.01 ± 0.03
UUGUAG | 0.271 ± 0.0067 | 1.866 ± 0.0056 | 0.397 ± 0.18 | 1.992 ± 0.0089
GAAGCA | 0.272 ± 0.031 | 1.967 ± 0.015 | 0.486 ± 0.021 | 2 ± 0.024
GAAGCG | 0.117 ± 0.13 | 1.929 ± 0.012 | 0.259 ± 0.065 | 2.02 ± 0.034
AUUUUA | 0.5131 ± 0.0034 | 1.969 ± 0.0082 | 0.318 ± 0.1 | 2.01 ± 0.023
CGAGGG | 0.504 ± 0.034 | 1.844 ± 0.0078 | 0.672 ± 0.22 | 1.968 ± 0.011
CAUGAA | -0.00657 ± 0.027 | 1.954 ± 0.014 | -0.0505 ± 0.07 | 1.98 ± 0.045
GAAACU | 0.175 ± 0.071 | 2.004 ± 0.0055 | 0.437 ± 0.016 | 2.001 ± 0.019
GAAGUA | 0.299 ± 0.013 | 1.966 ± 0.0082 | 0.331 ± 0.045 | 2.014 ± 0.019
AUGAAU | 0.232 ± 0.017 | 1.929 ± 0.013 | 0.0739 ± 0.05 | 2 ± 0.022
CGAACC | 0.4 ± 0.15 | 2.059 ± 0.013 | 0.315 ± 0.15 | 2.02 ± 0.054
GUGCGU | 0.436 ± 0.15 | 1.9915 ± 0.0017 | 0.582 ± 0.16 | 2.008 ± 0.017
CCUCCA | 0.578 ± 0.057 | 2.02 ± 0.031 | 0.469 ± 0.016 | 2.04 ± 0.027
CGCAUU | 0.241 ± 0.21 | 2.015 ± 0.0023 | 0.576 ± 0.31 | 1.99 ± 0.039
UCAUGC | 0.558 ± 0.075 | 2.038 ± 0.01 | 0.485 ± 0.15 | 2.04 ± 0.031
CAUGUU | -0.0794 ± 0.016 | 2.027 ± 0.017 | -0.27 ± 0.064 | 2.04 ± 0.029
UUUUGA | 0.586 ± 0.1 | 1.976 ± 0.013 | 0.704 ± 0.022 | 2.02 ± 0.036
UGUCUG | 0.171 ± 0.096 | 1.73 ± 0.02 | 0.451 ± 0.14 | 1.96 ± 0.047
UGACAA | -0.327 ± 0.12 | 1.952 ± 0.0062 | -0.72 ± 0.24 | 2.024 ± 0.018
GUGGCA | 0.0901 ± 0.037 | 2.011 ± 0.0084 | 0.458 ± 0.2 | 2.02 ± 0.042
AUCUGG | 0.349 ± 0.012 | 1.92 ± 0.023 | 0.27 ± 0.019 | 2.02 ± 0.042
UACCGU | 0.352 ± 0.017 | 1.989 ± 0.0026 | 0.431 ± 0.11 | 2.02 ± 0.048

Variant | FACS-Seq fitted mean (log10) ((6R,S)-folinic acid [1]) | normalized RNA/DNA level without ligand (log10) ((6R,S)-folinic acid [2]) | FACS-Seq fitted mean (log10) ((6R,S)-folinic acid [3]) | normalized RNA/DNA level with ligand (log10) ((6R,S)-folinic acid [4])
UUUUAC | 0.482 ± 0.098 | 1.975 ± 0.002 | 0.507 ± 0.18 | 1.97 ± 0.04
AAUUGU | 0.0241 ± 0.064 | 1.949 ± 0.019 | 0.334 ± 0.097 | 1.98 ± 0.032
UGGAAG | 0.369 ± 0.058 | 1.653 ± 0.0055 | 0.695 ± 0.017 | 1.96 ± 0.039
GACAUU | 0.457 ± 0.096 | 2.024 ± 0.013 | 0.529 ± 0.11 | 2 ± 0.064
UGCAAA | 0.549 ± 0.013 | 1.957 ± 0.0057 | 0.532 ± 0.037 | 1.98 ± 0.034
UAGCCG | 0.635 ± 0.13 | 1.86 ± 0.036 | 0.409 ± 0.069 | 1.99 ± 0.041
GACGAG | -0.054 ± 0.034 | 1.907 ± 0.0022 | 0.319 ± 0.29 | 2.01 ± 0.037
UGCGCU | 0.293 ± 0.033 | 2.043 ± 0.0054 | 0.428 ± 0.044 | 2.04 ± 0.03
AACCAA | 0.377 ± 0.016 | 1.989 ± 0.0067 | 0.433 ± 0.11 | 2 ± 0.028
AACCAG | 0.421 ± 0.13 | 1.966 ± 0.015 | 0.407 ± 0.2 | 2.0092 ± 0.00083
GAGCCG | 0.537 ± 0.069 | 2.047 ± 0.0093 | 0.419 ± 0.15 | 2.03 ± 0.05
GAGCCA | 0.191 ± 0.0078 | 2.023 ± 0.02 | 0.281 ± 0.24 | 2.02 ± 0.047
GAGCCU | 0.306 ± 0.041 | 2.076 ± 0.012 | 0.5133 ± 0.00087 | 2.062 ± 0.0057
ACCAAA | 0.632 ± 0.15 | 2.018 ± 0.012 | 0.52 ± 0.14 | 2.017 ± 0.011
CAGAUA | 0.631 ± 0.27 | 1.959 ± 0.008 | 0.663 ± 0.087 | 1.97 ± 0.027
UGCAGG | -0.138 ± 0.052 | 1.68 ± 0.029 | -0.00907 ± 0.1 | 1.909 ± 0.017
GUUUUC | 0.421 ± 0.019 | 2.03 ± 0.021 | 0.346 ± 0.14 | 2 ± 0.028
GCUUAA | 0.522 ± 0.21 | 1.9846 ± 0.00062 | 0.5605 ± 0.0027 | 2.01 ± 0.023
GACACA | 0.265 ± 0.028 | 1.99 ± 0.02 | 0.656 ± 0.046 | 2 ± 0.037
UCAGGA | 0.149 ± 0.13 | 1.901 ± 0.011 | -0.0151 ± 0.03 | 1.98 ± 0.032
UAAAGG | 0.0807 ± 0.018 | 1.631 ± 0.0062 | 0.507 ± 0.13 | 1.94 ± 0.035
CAUCUC | 0.717 ± 0.072 | 2.111 ± 0.017 | 0.619 ± 0.56 | 2.08 ± 0.072
AGACGA | -0.49 ± 0.11 | 1.99 ± 0.015 | -0.617 ± 0.18 | 2.02 ± 0.03
CUAUUU | 0.149 ± 0.064 | 1.984 ± 0.0088 | -0.0506 ± 0.019 | 1.984 ± 0.016

Variant | FACS-Seq fitted mean (log10) ((6R,S)-folinic acid [1]) | normalized RNA/DNA level without ligand (log10) ((6R,S)-folinic acid [2]) | FACS-Seq fitted mean (log10) ((6R,S)-folinic acid [3]) | normalized RNA/DNA level with ligand (log10) ((6R,S)-folinic acid [4])
GAUUAU | 0.371 ± 0.018 | 1.97 ± 0.013 | 0.305 ± 0.0094 | 1.992 ± 0.012
AAUUUG | 0.443 ± 0.039 | 1.952 ± 0.016 | 0.374 ± 0.038 | 2.02 ± 0.024
UGUAUC | -0.0452 ± 0.058 | 2.016 ± 0.019 | -0.247 ± 0.051 | 1.99 ± 0.028
CCUGCU | -0.139 ± 0.054 | 2.06 ± 0.013 | -0.135 ± 0.0061 | 2.08 ± 0.04
GCGUAA | 0.297 ± 0.07 | 1.991 ± 0.014 | 0.2 ± 0.11 | 2.04 ± 0.046
GUAUGC | 0.271 ± 0.067 | 1.891 ± 0.015 | 0.404 ± 0.15 | 2 ± 0.03
AUAAGG | 0.0495 ± 0.016 | 1.882 ± 0.011 | 0.356 ± 0.25 | 1.99 ± 0.012
GCAGGG | 0.107 ± 0.12 | 1.9807 ± 0.00024 | 0.128 ± 0.053 | 2.04 ± 0.036
AAACAG | 0.346 ± 0.021 | 1.925 ± 0.0068 | 0.296 ± 0.11 | 1.99 ± 0.046
GAUGUC | 0.311 ± 0.066 | 2.021 ± 0.013 | 0.392 ± 0.21 | 1.991 ± 0.014
UGUUAA | -0.0426 ± 0.13 | 1.92 ± 0.024 | 0.191 ± 0.081 | 1.98 ± 0.022
UAAUGG | 0.152 ± 0.043 | 1.601 ± 0.011 | 0.399 ± 0.18 | 1.923 ± 0.0091
CAAUGA | 0.153 ± 0.14 | 1.998 ± 0.0058 | 0.267 ± 0.16 | 2.02 ± 0.049
CCGGUU | 0.218 ± 0.017 | 2.038 ± 0.016 | -0.22 ± 0.1 | 2.01 ± 0.018
GAGGAU | 0.372 ± 0.013 | 1.963 ± 0.0066 | 0.0226 ± 0.65 | 2.02 ± 0.033
UUGCUA | 0.353 ± 0.027 | 2.002 ± 0.0079 | 0.377 ± 0.051 | 2.04 ± 0.026
AGUGGA | 0.399 ± 0.14 | 1.963 ± 0.018 | 0.327 ± 0.082 | 2.015 ± 0.0071
AAGGCC | 0.18 ± 0.073 | 2.059 ± 0.012 | 0.288 ± 0.18 | 2.04 ± 0.081
GUCUGG | 0.433 ± 0.03 | 2.027 ± 0.0089 | 0.385 ± 0.25 | 2.07 ± 0.063
GCGCUA | 0.652 ± 0.016 | 2.067 ± 0.018 | 0.697 ± 0.34 | 2.05 ± 0.021
ACGCCU | -0.804 ± 0.062 | 2.07 ± 0.011 | -1.68 ± 0.58 | 2.06 ± 0.046
AACACG | 0.361 ± 0.13 | 1.938 ± 0.0019 | 0.436 ± 0.18 | 2 ± 0.045
CUCGCU | 0.424 ± 0.087 | 2.06 ± 0.044 | 0.349 ± 0.091 | 2.02 ± 0.038

Source: the supplement of paper PMC6757056
